In patent publication US20190055314A1 (ADAGENE, published 2019):
Positions count from the first letter of the chain named. Where two headings read alike, the source gives them in different places. Values belong to the binder of their own block, whether it stands above or below them.

Tests used:
[1] = molecular target: T1, Hu_CRD3-CRD4 (human, UniProt Q07011 87-159, limits assumed); experiment: flow cytometry, yeast display [Cont.]
T1 construct: also called two CRD units (CRD3-CRD4) of human CD137

[2] = molecular target: T2, Hu_CRD2-CRD3-CRD4 (human, UniProt Q07011 46-159, limits assumed); experiment: flow cytometry, yeast display [Cont.]
T2 construct: also called three CRD units (CRD2-CRD3-CRD4) of human CD137

[3] = molecular target: T3, Hu_CRD1-CRD2-CRD3 (human, UniProt Q07011 24-118, limits assumed); experiment: flow cytometry, yeast display [Cont.]
T3 construct: also called three CRD units (CRD1-CRD2-CRD3) of human CD137

[4] = molecular target: T4, full-length human CD137 on the cell surface (human, UniProt Q07011 18-255); experiment: flow cytometry, yeast display [Cont.]
T4 construct: also called Human WT

[5] = molecular target: T5, Hu_CRD3 (human, limits assumed); experiment: flow cytometry, yeast display [Cont.]
T5 construct: also called human CD137 CRD3
T5 chain: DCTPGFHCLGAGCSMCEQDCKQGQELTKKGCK

[6] = molecular target: T6, Hu_CRD1-CRD2 (human, UniProt Q07011 24-86, limits assumed); experiment: flow cytometry, yeast display [Cont.]
T6 construct: also called two CRD units (CRD1-CRD2) of human CD137

[7] = molecular target: T7, Hu_CRD4 (human, UniProt Q07011 119-159, limits assumed); experiment: flow cytometry, yeast display [Cont.]
T7 construct: also called human CD137 CRD4
T7 chain: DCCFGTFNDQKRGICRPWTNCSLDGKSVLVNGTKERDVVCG

[8] = molecular target: T8, Hu_CRD2-CRD3 (human, UniProt Q07011 46-118, limits assumed); experiment: flow cytometry, yeast display [Cont.]
T8 construct: also called two CRD units (CRD2-CRD3) of human CD137

[9] = molecular target: T9, Hu_GTF34AAA (human, UniProt Q07011 18-255); experiment: flow cytometry, HEK293F cells expressing CD137 or mutant [Cont.]
T9 construct: On HEK293F; also called GFT34AAA
T9 chain: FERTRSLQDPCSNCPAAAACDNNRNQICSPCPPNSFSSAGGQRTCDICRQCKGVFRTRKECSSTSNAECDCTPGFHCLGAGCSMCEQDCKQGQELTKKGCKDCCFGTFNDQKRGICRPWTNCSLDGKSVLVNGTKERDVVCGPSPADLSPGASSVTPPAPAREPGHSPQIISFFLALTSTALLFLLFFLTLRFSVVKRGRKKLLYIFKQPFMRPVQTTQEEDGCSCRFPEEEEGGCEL

[10] = molecular target: T10, Hu_FH92AA (human, UniProt Q07011 18-255); experiment: as above
T10 construct: On HEK293F

[11] = molecular target: T11, Hu_FSS53AAA (human, UniProt Q07011 18-255); experiment: as above
T11 construct: On HEK293F
T11 chain: T9 chain with A17G, A18T, A19F, F36A, S37A, S38A

[12] = molecular target: T12, rat CD137 on the cell surface (rat, UniProt Q4W8J3 24-258); experiment: flow cytometry, HEK293F cells expressing CD137
T12 sequence: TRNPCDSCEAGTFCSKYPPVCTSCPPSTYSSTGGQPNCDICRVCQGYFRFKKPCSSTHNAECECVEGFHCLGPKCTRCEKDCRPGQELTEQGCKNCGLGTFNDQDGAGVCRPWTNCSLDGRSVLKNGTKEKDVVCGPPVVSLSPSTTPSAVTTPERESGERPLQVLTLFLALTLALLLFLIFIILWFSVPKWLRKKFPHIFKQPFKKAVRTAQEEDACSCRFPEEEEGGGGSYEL

[13] = molecular target: T13, Hu_GQ109AA (human, UniProt Q07011 18-255); experiment: flow cytometry, HEK293F
T13 construct: On HEK293F

[14] = molecular target: T14, Hu_EL111AA (human, UniProt Q07011 18-255); experiment: flow cytometry, HEK293F
T14 construct: On HEK293F

[15] = molecular target: T15, Hu_TN137AA (human, UniProt Q07011 18-255); experiment: flow cytometry, HEK293F
T15 construct: On HEK293F

[16] = molecular target: T1, Hu_CRD3-CRD4; experiment: flow cytometry, yeast display [Cont.]; remark: listed apart in the source
[17] = molecular target: T2, Hu_CRD2-CRD3-CRD4; experiment: flow cytometry, yeast display [Cont.]; remark: listed apart in the source
[18] = molecular target: T3, Hu_CRD1-CRD2-CRD3; experiment: flow cytometry, yeast display [Cont.]; remark: listed apart in the source
[19] = molecular target: T16, human CD137-His6 (Sino Biological #10041-H08H) (human, UniProt Q07011 24-186); experiment: SPR Biacore, IgG captured
T16 construct: Bought; also called human CD137 protein; not shown: His6 tag

[20] = molecular target: T17, Hu_CRD2 (human, UniProt Q07011 46-86, limits assumed); experiment: flow cytometry, yeast display [Cont.]
T17 construct: also called human CD137 CRD2
T17 chain: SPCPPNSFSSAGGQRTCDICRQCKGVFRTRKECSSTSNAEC

[21] = molecular target: T18, full-length mouse CD137 on the cell surface (mouse, UniProt P20334 24-178); experiment: flow cytometry, yeast display [Cont.]
T18 sequence: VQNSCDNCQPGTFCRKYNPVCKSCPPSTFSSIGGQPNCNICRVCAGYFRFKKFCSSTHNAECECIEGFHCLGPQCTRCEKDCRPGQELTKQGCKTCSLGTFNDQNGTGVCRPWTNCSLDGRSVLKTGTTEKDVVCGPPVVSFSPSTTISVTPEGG

[22] = molecular target: T4, full-length human CD137 on the cell …; experiment: flow cytometry, yeast display [Cont.]; remark: listed apart in the source
[23] = molecular target: T19, mouse CD137 protein (Biacore) (mouse, UniProt P20334 24-178, limits assumed); experiment: SPR Biacore
T19 construct: Construct used as SPR analyte not described
T19 sequence: T18 sequence

[24] = molecular target: T4, full-length human CD137 on the cell …; experiment: cell-based or functional assay
[25] = molecular target: T4, full-length human CD137 on the cell …; experiment: flow cytometry, HEK293F
[26] = molecular target: T18, full-length mouse CD137 on the cell …; experiment: flow cytometry, HEK293F cells expressing CD137 or mutant
[27] = molecular target: T4, full-length human CD137 on the cell …; experiment: as above
[28] = molecular target: T20, Hu_GT150AA (human, UniProt Q07011 18-255); experiment: flow cytometry, HEK293F cells expressing CD137 or mutant [Cont.]
T20 construct: On HEK293F

[29] = molecular target: T21, Hu_PW135AA (human, UniProt Q07011 18-255); experiment: as above
T21 construct: On HEK293F

[30] = molecular target: T22, Hu_FN125AA (human, UniProt Q07011 18-255); experiment: as above
T22 construct: On HEK293F

[31] = molecular target: T23, mouse CD137 fused with human FC fragment (mouse, UniProt P20334 24-178, limits assumed); experiment: ELISA, coated CD137-Fc
T23 construct: also called mouse CD137-Fc; not shown: human Fc fragment
T23 sequence: T18 sequence

[32] = molecular target: T5, Hu_CRD3; experiment: flow cytometry, yeast display [Cont.]
[33] = molecular target: T6, Hu_CRD1-CRD2; experiment: flow cytometry, yeast display [Cont.]; remark: listed apart in the source
[34] = molecular target: T7, Hu_CRD4; experiment: flow cytometry, yeast display [Cont.]
[35] = molecular target: T8, Hu_CRD2-CRD3; experiment: flow cytometry, yeast display [Cont.]; remark: listed apart in the source
[36] = molecular target: T24, CD137-hisFc fusion protein (Sino Biological Cat 10041-H03H) (human, UniProt Q07011 24-186); experiment: BLI Octet, Fab
T24 construct: Bought; also called recombinant human CD137 (fused with human Fc and His tag); not shown: His tag and human Fc

[37] = molecular target: T24, CD137-hisFc fusion protein (Sino …); experiment: BLI Octet, Fab; remark: listed apart in the source
[38] = molecular target: T23, mouse CD137 fused with human FC fragment; experiment: ELISA, Fab captured by anti-human IgG (Fab specific), CD137-Fc added, anti-human Fc-HRP

% in upper right quadrant [1]: 0.24%
Mean [1]: 10000
% in upper right quadrant [2]: 0.026%
Mean [2]: 3260
% in upper right quadrant [3]: 0.19%
Mean [3]: 4700
binding result [4]: no binding
% in upper right quadrant [5]: 0.2%
Mean [5]: 46000
% in upper right quadrant [6]: 0.16%
Mean [6]: 43800
% in upper right quadrant [7]: 0.15%
Mean [7]: 9270
% in upper right quadrant [8]: 0.19%
Mean [8]: 15900
B1: mouse CD137L (ligand, UniProt P41274 104-309, looked up)
chain: RTEPRPALTITTSPNLGTRENNADQVTPVSHIGCPNTTQQGSPVFAKLLAKNQASLCNTTLNWHSQDGAGSSYLSQGLRYEEDKKELVVDSPGLYYVFLELKLSPTFTNTGHKVQGWVSLVLQAKPQVDDFDNLALTVELFPCSMENKLVDRSWSQLLLLKAGHRLSVGLRAYLHGAQDAYRDWELSYPNTTSFGLFLVKPDNPWE

Mean [9]: 8620
binding result [10]: binds
Mean [11]: 16700
binding result [13]: binds
binding result [14]: binds
binding result [15]: binds
% in upper right quadrant [16]: 0.18%
Mean [16]: 3460
% in upper right quadrant [17]: 0.42%
Mean [17]: 29500
% in upper right quadrant [18]: 57.2%
Mean [18]: 46500
Kd [19]: 9.6 nM
% in upper right quadrant [20]: 0.26%
Mean [20]: 4050
% in upper right quadrant [21]: 0.4%
Mean [21]: 13100
% in upper right quadrant [22]: 32.2%
Mean [22]: 93600
binding result [23]: no binding
NFκB reporter: EC50 (nM) With Cross-Linker [24]: 2.51 nM
NFκB reporter: EC50 (nM) Without Cross-Linker [24]: 1.27 nM
Kd [25]: 3.3 nM
% in upper right quadrant [27]: 27.8%
Mean [28]: 21300
Mean [29]: 53900
Mean [30]: 23100
binding result [31]: no binding
% in upper right quadrant [32]: 0.22%
Mean [32]: 13900
% in upper right quadrant [33]: 51.4%
Mean [33]: 26000
% in upper right quadrant [34]: 0.15%
Mean [34]: 6770
% in upper right quadrant [35]: 0.12%
Mean [35]: 12800
B2: AC1121 (antibody, V domains shown)
VH: QVQLQQWGAGLLKPSETLSLTCAVYGGSFSGYYWSWIRQSPEKGLEWIGEINHGGYVTYNPSLESRVTISVDTSKNQFSLKLSSVTAADTAVYYCARDYGPGNYDWYFDLWGRGTLVTVSS
VL: EIVLTQSPATLSLSPGERATLSCRASQSVSSYLAWYQQKPGQAPRLLIYDASNRATGIPARFSGSGSGTDFTLTISSLEPEDFAVYYCQQRSNWPPALTFGGGTKVEIK
binding result [12]: no binding (tested: 100 nM (text paragraph 220))
binding result [26]: no binding (tested: 100 nM (as in Example 5))

Kd [36]: 7.29 nM
koff [36]: 0.0034 s⁻¹
kon [36]: 466000 M⁻¹ s⁻¹
Kd [37]: 7.3 nM
koff [37]: 0.0034 s⁻¹
kon [37]: 470000 M⁻¹ s⁻¹
binding result [38]: no binding
B3: Fab 5351 (Fab, V domains shown)
VH: EVQLVESGGGLVQPGGSLRLSCAASGYSITSGHYWAWIRQAPGKGLEWVSSISGYGSTTYYADSVKGRFTISRDNSKNTLYLQLNSLRAEDTAVYYCARGGSDAVLGDWFAYWGQGTLVTVSS
VL: DIQLTQSPSSLSASVGDRVTITCRASQGIGSFLAWYQQKPGKAPKLLIYDASNLETGVPSRFSGSGSGTDFTLTISSLQPEDFATYYCQQGYYLWTFGQGTKVEIKR
notes: Fab from E. coli; also called VH25/VL25
